Test results reported in patent US20120128678A1 (FORERUNNER PHARMA RESEARCH, published 2012).

T1: human TMPRSS11E, full-length, forced expression on cells (DG44, Ba/F3, SK-Hep-1) (human, UniProt Q9UL52 1-423)
T1 construct: also called DESC1; BaF/TMPRSS11E; not shown: C-terminal tag added through the antisense primer
T1 sequence: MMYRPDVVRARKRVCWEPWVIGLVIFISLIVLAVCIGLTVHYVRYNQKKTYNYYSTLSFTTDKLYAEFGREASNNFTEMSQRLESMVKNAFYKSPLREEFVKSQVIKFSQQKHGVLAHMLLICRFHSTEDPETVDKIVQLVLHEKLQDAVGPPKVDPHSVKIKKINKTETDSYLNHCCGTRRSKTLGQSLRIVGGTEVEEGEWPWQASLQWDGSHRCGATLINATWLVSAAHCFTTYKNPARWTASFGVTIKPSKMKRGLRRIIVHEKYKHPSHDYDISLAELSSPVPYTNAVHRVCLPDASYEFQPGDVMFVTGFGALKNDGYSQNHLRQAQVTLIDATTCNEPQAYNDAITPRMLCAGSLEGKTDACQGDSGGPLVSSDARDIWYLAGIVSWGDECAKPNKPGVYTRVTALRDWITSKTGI

T2: human TMPRSS11E, endogenous, on cancer cell lines and in clinical cancer tissues (human, UniProt Q9UL52 1-423)
T2 construct: Endogenous protein of h2009, h2087, ME-180 and colo201 cells and of lung, uterine cervix and esophagus cancer tissue sections; also called DESC1
T2 sequence: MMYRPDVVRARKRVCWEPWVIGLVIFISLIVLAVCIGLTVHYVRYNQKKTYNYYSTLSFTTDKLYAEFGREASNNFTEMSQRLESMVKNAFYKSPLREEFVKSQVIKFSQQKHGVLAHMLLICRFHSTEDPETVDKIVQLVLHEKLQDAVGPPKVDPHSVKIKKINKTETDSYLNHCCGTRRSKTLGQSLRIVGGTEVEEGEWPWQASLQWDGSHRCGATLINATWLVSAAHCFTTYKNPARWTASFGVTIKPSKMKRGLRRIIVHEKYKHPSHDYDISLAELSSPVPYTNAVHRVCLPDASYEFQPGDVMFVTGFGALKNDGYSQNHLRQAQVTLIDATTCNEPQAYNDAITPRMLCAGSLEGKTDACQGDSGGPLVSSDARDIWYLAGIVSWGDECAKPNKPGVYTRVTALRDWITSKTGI

T3: fusion protein of MBP and TMPRSS11E SEA domain (human, UniProt Q9UL52 42-191)
T3 construct: Expressed in E. coli, purified and immobilized for the screening ELISA; also called fusion proteins of MBP and SEA domains
T3 sequence: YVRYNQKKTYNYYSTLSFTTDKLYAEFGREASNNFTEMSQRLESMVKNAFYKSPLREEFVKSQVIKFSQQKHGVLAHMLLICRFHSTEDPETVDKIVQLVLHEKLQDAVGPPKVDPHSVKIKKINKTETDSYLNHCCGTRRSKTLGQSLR

B1: EA230 (mouse hybridoma antibody) (antibody, V domains shown)
VH: EVKLEESGGALVQPGGSMKLSCVASGFTVSNYWMSWVRQSPEKGLEWVAEVRLKSNNYVTHYAESVKGRFTISRDDSKSSVYLQMNNLRPEDTGIYYCTPFAYWGQGTLVTVSA
VL: QIVLTQSPAILSASPGEKVTLTCSANSSVSSSYLYWHQQKPGSSPKLWIYRTSKLASGVPARFSGSGSGTSYSLTISSMEAEDAASYFCHQWDTYPPTFGGGTKLEIK
B2: chi.TM191 (FTKO), low-fucose anti-TMPRSS11E mouse-human chimeric antibody (antibody, human IgG1, kappa, V domains shown)
VH: EVKLVESGGGLVKPGGSLKLSCAASGFTFSDYGMAWVRQAPGKGPEWVAFISNLAYSSYYADTVTGRFTISRENAKNTLYLEMSSLRSEDSAMYYCARRIFDYDGDGPYEDYWGQGTSVTVSS
VL: QIVLTQSPAIMSASPGEKVTLTCSATSSVSSRYVHWYQQKSGASPKLWIYGTSNLASGVPARFSGSGSGTSYSLTISSVEAEDAATYYCQQYHNDPPTFGAGTKLELKR
modifications: sugar chain free from alpha-1,6 core-fucose (produced in CHO_FTKO cells)
notes: also called low-fucose chimeric TM191
B3: TM191 (mouse hybridoma antibody) (antibody, V domains shown)
VH: EVKLVESGGGLVKPGGSLKLSCAASGFTFSDYGMAWVRQAPGKGPEWVAFISNLAYSSYYADTVTGRFTISRENAKNTLYLEMSSLRSEDSAMYYCARRIFDYDGDGPYEDYWGQGTSVTVSS
VL: QIVLTQSPAIMSASPGEKVTLTCSATSSVSSRYVHWYQQKSGASPKLWIYGTSNLASGVPARFSGSGSGTSYSLTISSVEAEDAATYYCQQYHNDPPTFGAGTKLELK
notes: Mouse IgG1 kappa
B4: chi.TM191 (DG), anti-TMPRSS11E mouse-human chimeric antibody (antibody, V domains shown)
VH: EVKLVESGGGLVKPGGSLKLSCAASGFTFSDYGMAWVRQAPGKGPEWVAFISNLAYSSYYADTVTGRFTISRENAKNTLYLEMSSLRSEDSAMYYCARRIFDYDGDGPYEDYWGQGTSVTVSS
VL: QIVLTQSPAIMSASPGEKVTLTCSATSSVSSRYVHWYQQKSGASPKLWIYGTSNLASGVPARFSGSGSGTSYSLTISSVEAEDAATYYCQQYHNDPPTFGAGTKLELKR
notes: Human IgG1/kappa constant regions, produced in DG44 CHO cells; also called chimeric TM191

Columns and labels:
[1] = biological target: T1, human TMPRSS11E, full-length, forced …; assay: immunoblot of BaF/TMPRSS11E cell lysate, 0.5 ug/mL EA230 (FIG. 7)
Description: (§1) Cell lysates of Ba/F3, TMPRSS11E-expressing Ba/F3 (BaF/TMPRSS11E), a TMPRSS11E-negative cancer cell line VMRC-LCD, and TMPRSS11E-positive cancer cell lines h2009 and ME-180 were prepared. 50 μL of NP-40 Lysis Buffer (0.5% (v/v) Nonidet P40, 20 mM Tris-HCl (pH 7.5), 150 mM NaCl, 5 mM EDTA) was added to 1×10⁶ cells and left at 4° C. for 15 minutes. Then, after centrifugation (14,000 rpm, 15 min), the supernatant was used as lysates. The lysates corresponding to 2×10⁵ cells were separated by SDS-PAGE and then transferred to Immobilon-P (Millipore Corp.) using Trans-Blot SD Semi-Dry Electrophoretic Transfer Cell (Bio-Rad Laboratories, Inc.). The membrane was gently washed with TBS-T (0.05% Tween 20, TBS) and then shaken for 1 hour in TBS-T containing 5% skim milk. After shaking for approximately 10 minutes in TBS-T, 0.5 μg/mL EA230 antibodies diluted with TBS-T containing 1% skim milk were added to the membrane, which was then shaken for 1 hour. […] Since the presumed molecular weight of TMPRSS11E is 47.7 kDa, it seemed that TMPRSS11E that underwent sugar chain modification was probably detected. This means that TMPRSS11E can be detected specifically by immunoblot using EA230.

[2] = biological target: T2, human TMPRSS11E, endogenous, on cancer …; assay: immunoblot of lysates of cancer cell lines (h2009, ME-180), 0.5 ug/mL EA230 (FIG. 7)
Description: as §1

[3] = biological target: T3, fusion protein of MBP and TMPRSS11E SEA …; assay: screening ELISA on immobilized MBP-SEA domain fusion protein
Description: This fusion protein was used to immunize Balb/c mice or MRL/lpr mice. Hybridomas were established in the same way as above. New England Biolabs Inc. pMALc2x vectors were used in screening, which was performed by ELISA using fusion proteins of MBP and SEA domains that were expressed in E. coli, then purified, and immobilized on a solid phase. […] The nucleotide sequence of the EA230 heavy chain variable region is shown in SEQ ID NO: 53, and its amino acid sequence is shown in SEQ ID NO: 54. The nucleotide sequence of the EA230 light chain variable region is shown in SEQ ID NO: 55, and its amino acid sequence is shown in SEQ ID NO: 56.

[4] = biological target: T1, human TMPRSS11E, full-length, forced …; assay: flow cytometry on TMPRSS11E-expressing Ba/F3 cells, FITC anti-human IgG detection (FIG. 2)
Description: (§2) The TMPRSS11E-constantly expressing cells thus constructed were evaluated for binding to the parental strain thereof by flow cytometry. The anti-TMPRSS11E antibody diluted to an appropriate concentration was added to cells corresponding to 5×10⁵ and reacted for 1 hour on ice. The cells were washed by centrifugation. Then, FITC-labeled anti-human IgG antibodies were added thereto and reacted for 1 hour on ice. The cells were washed by centrifugation and then suspended in a medium containing 2 μg/mL propidium iodide, and the suspension was applied to FACS Calibur (Becton, Dickinson and Company). […] The chimeric antibodies and low-fucose chimeric antibodies had equivalent avidity. Next, avidity to various cancer cell lines was evaluated by flow cytometry.

[5] = biological target: T2, human TMPRSS11E, endogenous, on cancer …; assay: flow cytometry on cancer cell lines h2009, h2087, ME-180, colo201 (FIG. 3)
Description: as §2

[6] = biological target: T1, human TMPRSS11E, full-length, forced …; assay: flow cytometry on TMPRSS11E-expressing SK-Hep-1 cells (FIG. 9)

Binder	binding result [4]	binding result [5]	further results
B1	–	–	binding result [1]: binds; binding result [2]: binds; binding result [3]: binds
B2	binds	binds	–
B3	–	–	binding result [6]: binds
B4	binds	binds	–
